Data on one substance can be found in patent US6821947.

The test addresses human recombinant endorepellin tagged with His6, from 293-EBNA cells (human) (UniProt P98160). The experiment in a line: cell-based or functional assay.
UniProt P98160, sequence (P98160 3687-4391 limits assumed): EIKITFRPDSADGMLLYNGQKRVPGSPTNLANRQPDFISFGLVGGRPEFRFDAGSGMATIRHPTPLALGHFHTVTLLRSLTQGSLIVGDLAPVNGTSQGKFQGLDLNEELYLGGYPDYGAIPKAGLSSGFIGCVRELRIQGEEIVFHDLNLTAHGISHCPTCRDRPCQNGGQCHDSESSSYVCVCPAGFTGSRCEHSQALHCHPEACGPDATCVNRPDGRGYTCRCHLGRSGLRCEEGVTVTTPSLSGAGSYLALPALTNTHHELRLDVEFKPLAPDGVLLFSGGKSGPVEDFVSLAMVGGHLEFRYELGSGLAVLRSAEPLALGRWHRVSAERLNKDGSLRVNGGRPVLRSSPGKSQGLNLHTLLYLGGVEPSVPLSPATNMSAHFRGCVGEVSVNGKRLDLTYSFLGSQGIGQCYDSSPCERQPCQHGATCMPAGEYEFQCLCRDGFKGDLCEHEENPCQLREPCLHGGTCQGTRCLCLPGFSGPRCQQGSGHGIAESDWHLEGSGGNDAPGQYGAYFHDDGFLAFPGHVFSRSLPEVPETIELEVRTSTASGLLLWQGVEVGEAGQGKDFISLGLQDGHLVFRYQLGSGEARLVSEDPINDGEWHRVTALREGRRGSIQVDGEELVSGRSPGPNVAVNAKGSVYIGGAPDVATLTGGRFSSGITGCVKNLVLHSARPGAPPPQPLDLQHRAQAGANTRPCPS

With “recombinant endostatin purified from Pichia pastoris yeast cells (Calbiochem-Novabiochem)”, the VEGF-induced HUVEC migration through fibrillar collagen (molar ratio of endostatin/endorepellin) came out at 1.
